{
  "source": "the supplement of paper PMC10567573",
  "parents": {"B1": {"name": "HNF4A (parent)", "chain": "RFSRQCVVDKDKRNQCRYCRLKKC"}},
  "data": [
    {"variants_of": "B1", "experiment": "protein stability index of a GFP-peptide fusion (GPS, HEK-293T) (PSI 1-6); higher = more stable", "details": "c terminus: a fixed tail appended", "values": [
      {"variant": "RFSRQCVVDKDKRNQRRYCRLKKC", "note": "[C16R]", "protein stability index": 4.33},
      {"variant": "RFSRQCVVDKDKRNQPRYCRLKKC", "note": "[C16P]", "protein stability index": 3.58},
      {"variant": "RFSRQCVVDKDKRNQSRYCRLKKC", "note": "[C16S]", "protein stability index": 3.52},
      {"variant": "RFSRQCVVDKDKRNQVRYCRLKKC", "note": "[C16V]", "protein stability index": 3.33},
      {"variant": "RFSRQCVVDKDKRNQNRYCRLKKC", "note": "[C16N]", "protein stability index": 3.31},
      {"variant": "RFSRQCVVDKDKRNQQRYCRLKKC", "note": "[C16Q]", "protein stability index": 3.38},
      {"variant": "RFSRQCVVDKDKRNQYRYCRLKKC", "note": "[C16Y]", "protein stability index": 3.48},
      {"variant": "RFSRQCVVDKDKRNQWRYCRLKKC", "note": "[C16W]", "protein stability index": 3.37},
      {"variant": "RFSRQCVVDKDKRNQTRYCRLKKC", "note": "[C16T]", "protein stability index": 3.56},
      {"variant": "RFSRQCVVDKDKRNQCRYCRLKKA", "note": "[C24A]", "protein stability index": 3.01},
      {"variant": "RFSRQCVVDKDKRNQCRYCRLKKI", "note": "[C24I]", "protein stability index": 2.93},
      {"variant": "RFSRQCVVDKDKRNQCRYCRLKKN", "note": "[C24N]", "protein stability index": 2.89},
      {"variant": "RFSRQCVVDKDKRNQCRYCRLKKF", "note": "[C24F]", "protein stability index": 2.55},
      {"variant": "RFSRQCVVDKDKRNQCRYCRLKKT", "note": "[C24T]", "protein stability index": 3.08},
      {"variant": "RFSRQCVVDKDKRNQCRYCRLKKE", "note": "[C24E]", "protein stability index": 1.01},
      {"variant": "RFSRQCVVDKDKRNQCRYCRLKKS", "note": "[C24S]", "protein stability index": 2.5},
      {"variant": "RFSRQCVVDKDKRNQCRYCRLKKY", "note": "[C24Y]", "protein stability index": 2.77},
      {"variant": "RFSRQCVVDKDKRNQCRYCRLKKM", "note": "[C24M]", "protein stability index": 3.33},
      {"variant": "RFSRQCVVDKDKRNQCRYCRLKKQ", "note": "[C24Q]", "protein stability index": 2.5},
      {"variant": "RFSRQCVVDKDKRNQCRYCRLKKK", "note": "[C24K]", "protein stability index": 2.62},
      {"variant": "RFSRQCVVDKDKRNQCRYCRLKKH", "note": "[C24H]", "protein stability index": 2.77},
      {"variant": "RFSRQCVVDKDKRNQCRYCRLKKL", "note": "[C24L]", "protein stability index": 2.39},
      {"variant": "RFSRQCVVDKDKRNQCRYCRLKKG", "note": "[C24G]", "protein stability index": 2.41},
      {"variant": "RFSRQCVVDKDKRNQCRYCRLKKV", "note": "[C24V]", "protein stability index": 2.34},
      {"variant": "RFSRQCVVDKDKRNQCRYCRLKKR", "note": "[C24R]", "protein stability index": 2.42},
      {"variant": "RFSRQCVVDKDKRNQCRYCRLKKW", "note": "[C24W]", "protein stability index": 1.81},
      {"variant": "RFSRQCVVDKDKRNQCRYPRLKKC", "note": "[C19P]", "protein stability index": 3.13},
      {"variant": "RFSRQCVVDKDKRNQCRYNRLKKC", "note": "[C19N]", "protein stability index": 3.71},
      {"variant": "RFSRQCVVDKDKRNQCRYFRLKKC", "note": "[C19F]", "protein stability index": 2.39},
      {"variant": "RFSRQCVVDKDKRNQCRYQRLKKC", "note": "[C19Q]", "protein stability index": 3.73},
      {"variant": "RFSRQCVVDKDKRNQCRYWRLKKC", "note": "[C19W]", "protein stability index": 2.46},
      {"variant": "RFSRQCVVDKDKRNQCRYIRLKKC", "note": "[C19I]", "protein stability index": 2.03},
      {"variant": "RFSRQCVVDKDKRNQCRYVRLKKC", "note": "[C19V]", "protein stability index": 2.95},
      {"variant": "RFSRQCVVDKDKRNQCRYHRLKKC", "note": "[C19H]", "protein stability index": 3.07},
      {"variant": "RFSRQCVVDKDKRNQCRYRRLKKC", "note": "[C19R]", "protein stability index": 3.37},
      {"variant": "RFSRQCVVDKDKRNQCRYARLKKC", "note": "[C19A]", "protein stability index": 3.07},
      {"variant": "RFSRQCVVDKDKRNQCRYLRLKKC", "note": "[C19L]", "protein stability index": 3.07},
      {"variant": "RFSRQCVVDKDKRNQCRYDRLKKC", "note": "[C19D]", "protein stability index": 4.09},
      {"variant": "RFSRQCVVDKDKRNQCRYGRLKKC", "note": "[C19G]", "protein stability index": 3.04},
      {"variant": "RFSRQCVVDKDKRNQCRYTRLKKC", "note": "[C19T]", "protein stability index": 2.99},
      {"variant": "RFSRQCVVDKDKRNQCRYSRLKKC", "note": "[C19S]", "protein stability index": 3.65},
      {"variant": "RFSRQCVVDKDKRNQCRYMRLKKC", "note": "[C19M]", "protein stability index": 3.08},
      {"variant": "RFSRQCVVDKDKRNQCRYCRLCKC", "note": "[K22C]", "protein stability index": 2.66},
      {"variant": "RFSRQCVVDKDKRNQCRYCRLFKC", "note": "[K22F]", "protein stability index": 1.8},
      {"variant": "RFSRQCVVDKDKRNQCRYCRLEKC", "note": "[K22E]", "protein stability index": 1.54},
      {"variant": "RFSRQCVVDKDKRNQCRYCRLPKC", "note": "[K22P]", "protein stability index": 2.12},
      {"variant": "RFSRQCVVDKDKRNQCRYCRLAKC", "note": "[K22A]", "protein stability index": 2.08},
      {"variant": "RFSRQCVVDKDKRNQCRYCRLVKC", "note": "[K22V]", "protein stability index": 1.83},
      {"variant": "RFSRQCVVDKDKRNQCRYCRLTKC", "note": "[K22T]", "protein stability index": 2.13},
      {"variant": "RFSRQCVVDKDKRNQCRYCRLYKC", "note": "[K22Y]", "protein stability index": 1.98},
      {"variant": "RFSRQCVVDKDKRNQCRYCRLSKC", "note": "[K22S]", "protein stability index": 2.73},
      {"variant": "RFSRQCVVDKDKRNQCRYCRLIKC", "note": "[K22I]", "protein stability index": 1.73},
      {"variant": "RFSRQCVVDKDKRNQCRYCRLDKC", "note": "[K22D]", "protein stability index": 2.13},
      {"variant": "RFSRQCVVDKDKRNQCRYCRLHKC", "note": "[K22H]", "protein stability index": 1.71},
      {"variant": "RFSRQCVVDKDKRNQCRYCRLMKC", "note": "[K22M]", "protein stability index": 1.56},
      {"variant": "RFSRQCVVDKDKRNQCRYCRLGKC", "note": "[K22G]", "protein stability index": 2.27},
      {"variant": "RFSRQCVVDKDKRNQCRYCRLQKC", "note": "[K22Q]", "protein stability index": 1.79},
      {"variant": "RFSRQCVVDKDKRNQCRYCRLLKC", "note": "[K22L]", "protein stability index": 2.57},
      {"variant": "RFSRQCVVDKDKRNQCRYCRLRKC", "note": "[K22R]", "protein stability index": 2.9},
      {"variant": "RFSRQCVVDKDKRNQCDYCRLKKC", "note": "[R17D]", "protein stability index": 3.29},
      {"variant": "RFSRQCVVDKDKRNQCLYCRLKKC", "note": "[R17L]", "protein stability index": 1.84},
      {"variant": "RFSRQCVVDKDKRNQCPYCRLKKC", "note": "[R17P]", "protein stability index": 2.9},
      {"variant": "RFSRQCVVDKDKRNQCYYCRLKKC", "note": "[R17Y]", "protein stability index": 2.21},
      {"variant": "RFSRQCVVDKDKRNQCSYCRLKKC", "note": "[R17S]", "protein stability index": 2.4},
      {"variant": "RFSRQCVVDKDKRNQCWYCRLKKC", "note": "[R17W]", "protein stability index": 2.42},
      {"variant": "RFSRQCVVDKDKRNQCIYCRLKKC", "note": "[R17I]", "protein stability index": 2.9},
      {"variant": "RFSRQCVVDKDKRNQCVYCRLKKC", "note": "[R17V]", "protein stability index": 2.21},
      {"variant": "RFSRQCVVDKDKRNQCNYCRLKKC", "note": "[R17N]", "protein stability index": 3.45},
      {"variant": "RFSRQCVVDKDKRNQCQYCRLKKC", "note": "[R17Q]", "protein stability index": 3.42},
      {"variant": "RFSRQCVVDKDKRNQCHYCRLKKC", "note": "[R17H]", "protein stability index": 2.83},
      {"variant": "RFSRQCVVDKDKRNQCFYCRLKKC", "note": "[R17F]", "protein stability index": 2.57},
      {"variant": "RFSRQCVVDKDKRNQCKYCRLKKC", "note": "[R17K]", "protein stability index": 2.54},
      {"variant": "RFSRQCVVDKDKRNQCGYCRLKKC", "note": "[R17G]", "protein stability index": 3.16},
      {"variant": "RFSRQCVVDKDKRNQCMYCRLKKC", "note": "[R17M]", "protein stability index": 2.79},
      {"variant": "RFSRQCVVDKDKRNQCEYCRLKKC", "note": "[R17E]", "protein stability index": 3.78},
      {"variant": "RFSRQCVVDKDKRNQCAYCRLKKC", "note": "[R17A]", "protein stability index": 2.77},
      {"variant": "RFSRQCVVDKDKRNQCCYCRLKKC", "note": "[R17C]", "protein stability index": 2.29},
      {"variant": "RFSRQCVVDKDKRNQCTYCRLKKC", "note": "[R17T]", "protein stability index": 2.69},
      {"variant": "RFSRQCVVDKDKRNQCRYCDLKKC", "note": "[R20D]", "protein stability index": 3},
      {"variant": "RFSRQCVVDKDKRNQCRYCMLKKC", "note": "[R20M]", "protein stability index": 2.96},
      {"variant": "RFSRQCVVDKDKRNQCRYCHLKKC", "note": "[R20H]", "protein stability index": 1.58},
      {"variant": "RFSRQCVVDKDKRNQCRYCILKKC", "note": "[R20I]", "protein stability index": 2.42},
      {"variant": "RFSRQCVVDKDKRNQCRYCCLKKC", "note": "[R20C]", "protein stability index": 2.24},
      {"variant": "RFSRQCVVDKDKRNQCRYCALKKC", "note": "[R20A]", "protein stability index": 2.96},
      {"variant": "RFSRQCVVDKDKRNQCRYCPLKKC", "note": "[R20P]", "protein stability index": 3.15},
      {"variant": "RFSRQCVVDKDKRNQCRYCVLKKC", "note": "[R20V]", "protein stability index": 2.56},
      {"variant": "RFSRQCVVDKDKRNQCRYCWLKKC", "note": "[R20W]", "protein stability index": 1.43},
      {"variant": "RFSRQCVVDKDKRNQCRYCELKKC", "note": "[R20E]", "protein stability index": 2.84},
      {"variant": "RFSRQCVVDKDKRNQCRYCSLKKC", "note": "[R20S]", "protein stability index": 2.72},
      {"variant": "RFSRQCVVDKDKRNQCRYCFLKKC", "note": "[R20F]", "protein stability index": 2.12},
      {"variant": "RFSRQCVVDKDKRNQCRYCTLKKC", "note": "[R20T]", "protein stability index": 2.74},
      {"variant": "RFSRQCVVDKDKRNQCRYCYLKKC", "note": "[R20Y]", "protein stability index": 2.28},
      {"variant": "RFSRQCVVDKDKRNQCRYCGLKKC", "note": "[R20G]", "protein stability index": 3.23},
      {"variant": "RFSRQCVVDKDKRNQCRYCQLKKC", "note": "[R20Q]", "protein stability index": 2.98}
    ]}
  ]
}
